Biological target: c-Kit (CD117; mast/stem cell growth factor receptor) on CD117+ bone marrow cells of β-globin/GFP transgenic mice (mouse) (UniProt P05532)
Assay: cell-based or functional assay

UniProt P05532, sequence (P05532 25-979): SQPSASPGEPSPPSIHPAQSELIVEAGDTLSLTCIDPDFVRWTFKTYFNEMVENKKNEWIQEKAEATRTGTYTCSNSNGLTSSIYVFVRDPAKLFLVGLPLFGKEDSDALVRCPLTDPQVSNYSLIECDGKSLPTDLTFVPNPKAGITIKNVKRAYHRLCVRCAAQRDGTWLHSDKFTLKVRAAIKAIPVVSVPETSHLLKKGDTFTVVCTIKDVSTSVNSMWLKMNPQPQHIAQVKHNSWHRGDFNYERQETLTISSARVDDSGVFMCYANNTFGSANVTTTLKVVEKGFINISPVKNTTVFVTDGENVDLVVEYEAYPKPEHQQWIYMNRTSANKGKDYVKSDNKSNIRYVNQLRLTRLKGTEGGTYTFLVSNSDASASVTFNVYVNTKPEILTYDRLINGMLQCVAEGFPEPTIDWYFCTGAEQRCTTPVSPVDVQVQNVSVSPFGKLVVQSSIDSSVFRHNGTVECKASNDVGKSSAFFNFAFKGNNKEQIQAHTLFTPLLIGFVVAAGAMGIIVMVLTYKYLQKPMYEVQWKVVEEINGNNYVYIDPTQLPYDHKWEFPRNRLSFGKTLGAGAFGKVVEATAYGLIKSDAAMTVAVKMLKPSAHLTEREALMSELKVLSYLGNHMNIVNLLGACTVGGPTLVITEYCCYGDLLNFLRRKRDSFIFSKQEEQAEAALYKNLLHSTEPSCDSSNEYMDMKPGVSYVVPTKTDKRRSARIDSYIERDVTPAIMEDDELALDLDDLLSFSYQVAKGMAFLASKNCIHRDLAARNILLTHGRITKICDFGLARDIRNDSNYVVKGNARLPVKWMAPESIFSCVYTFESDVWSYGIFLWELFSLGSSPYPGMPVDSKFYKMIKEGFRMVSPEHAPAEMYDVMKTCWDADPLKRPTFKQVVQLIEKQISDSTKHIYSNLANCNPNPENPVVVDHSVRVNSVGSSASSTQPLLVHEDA

- HDR activity (recombination between reporter gene constructs) in CD117+ cells: 2 fold
- γtcPNA4/donor DNA-mediated gene editing (% GFP expressing CD117+ cells, flow cytometry): 15%
Substance: Recombinant murine SCF (stem cell factor), catalog #250-03, PeproTech (from UniProt P20826 26-189) (ligand)

Source: patent US20200113821A1
